In publication PMC2132604 one finds reduction of association relative to wild-type FAK (densitometry) data, which are given here for 1 substance.

This assay has as its target p130^Cas, endogenous in CHO cells (Chinese hamster (endogenous in CHO)). As to the kind of experiment: co-IP.

“FAK P712/715A double point mutant, epitope-tagged, expressed from pCDM8-P712/715A in CHO cells (from UniProt Q00944 1-1053) (enzyme)” showed a reduction of association relative to wild-type FAK (densitometry) of 50%.
